Assay in all cases: MST
The target in assay [1] is T1, C-terminal BTB/POZ containing fragment of KCTD1 (BTB/POZ1) (UniProt Q719H9 1-257).
T1 sequence: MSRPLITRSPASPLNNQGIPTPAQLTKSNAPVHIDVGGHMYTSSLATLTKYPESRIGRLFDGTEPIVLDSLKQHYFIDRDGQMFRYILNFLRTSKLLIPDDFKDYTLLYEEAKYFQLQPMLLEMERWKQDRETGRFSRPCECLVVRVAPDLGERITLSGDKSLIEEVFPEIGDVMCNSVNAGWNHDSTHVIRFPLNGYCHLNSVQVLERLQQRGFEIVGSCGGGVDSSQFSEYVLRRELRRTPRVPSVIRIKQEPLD

Assay [2] addresses C-terminal BTB/POZ containing fragment of KCTD1 (BTB/POZ1) (UniProt Q719H9).
Assay [3] has as its target BTB/POZ domain of KCTD15 (BTB/POZ15) (UniProt Q96SI1).

BTB/POZ domain of KCTD15 (BTB/POZ15), sequence (Q96SI1 whole entry, the tested form may be a part): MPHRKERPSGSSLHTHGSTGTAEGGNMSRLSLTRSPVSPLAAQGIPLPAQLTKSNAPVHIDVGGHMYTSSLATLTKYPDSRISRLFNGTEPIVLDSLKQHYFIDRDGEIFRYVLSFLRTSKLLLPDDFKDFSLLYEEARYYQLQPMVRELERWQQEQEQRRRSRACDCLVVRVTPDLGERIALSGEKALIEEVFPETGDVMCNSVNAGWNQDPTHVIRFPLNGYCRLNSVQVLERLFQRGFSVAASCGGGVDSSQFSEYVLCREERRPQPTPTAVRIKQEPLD

B1: BTB/POZ domain of KCASH1 (KCTD11) (BTB/POZ11) (domain or fragment)
chain: GPVTLNVGGTLYSTTLETLTRFPDSMLGAMFRAGTPMPPNLNSQGGGHYFIDRDGKAFRHILNFLRLGRLDLPRGYGETALLRAEADFYQIRPLLDALRELEASQG
By Kd is commonly meant the constant that tells how readily two partners part at equilibrium. A lower Kd goes with tighter binding. B1 came in with a Kd in assay [1] of 0.8 ± 0.1 µM.

B2: KCASH2 (KCTD21), full length, recombinant (natural protein)
chain: MSDPITLNVGGKLYTTSLATLTSFPDSMLGAMFSGKMPTKRDSQGNCFIDRDGKVFRYILNFLRTSHLDLPEDFQEMGLLRREADFYQVQPLIEALQEKEVELSKAEKNAMLNITLNQRVQTVHFTVREAPQIYSLSSSSMEVFNANIFSTSCLFLKLLGSKLFYCSNGNLSSITSHLQDPNHLTLDWVANVEGLPEEEYTKQNLKRLWVVPANKQINSFQVFVEEVLKIALSDGFCIDSSHPHALDFMNNKIIRLIRYR
In the case of B2, the Kd in assay [2] is 3.9 µM; in assay [3], 6.6 µM.

For the origin of these results see article PMC10462845 (Neoplasia (New York, N.Y.), 2023).
